Measurements as given in article PMC8184850, “Cryo-EM structure of TFIIH/Rad4–Rad23–Rad33 in damaged DNA opening in nucleotide excision repair” (Nature Communications, 2021).

T1: Rad4–Rad23–Rad33 complex (yeast, UniProt P14736 1-754; P32628 1-398; Q04231 1-177)
T1 construct: Rad4 (XPC homologue), yeast; Rad23 (RAD23B homologue), yeast; Rad33 (CETN2 homologue), yeast; plasmid pETDuet-RAD33; also called Rad4–23–33; yeast homologue of XPC–RAD23B–CETN2; copies: + +
T1 sequence 1: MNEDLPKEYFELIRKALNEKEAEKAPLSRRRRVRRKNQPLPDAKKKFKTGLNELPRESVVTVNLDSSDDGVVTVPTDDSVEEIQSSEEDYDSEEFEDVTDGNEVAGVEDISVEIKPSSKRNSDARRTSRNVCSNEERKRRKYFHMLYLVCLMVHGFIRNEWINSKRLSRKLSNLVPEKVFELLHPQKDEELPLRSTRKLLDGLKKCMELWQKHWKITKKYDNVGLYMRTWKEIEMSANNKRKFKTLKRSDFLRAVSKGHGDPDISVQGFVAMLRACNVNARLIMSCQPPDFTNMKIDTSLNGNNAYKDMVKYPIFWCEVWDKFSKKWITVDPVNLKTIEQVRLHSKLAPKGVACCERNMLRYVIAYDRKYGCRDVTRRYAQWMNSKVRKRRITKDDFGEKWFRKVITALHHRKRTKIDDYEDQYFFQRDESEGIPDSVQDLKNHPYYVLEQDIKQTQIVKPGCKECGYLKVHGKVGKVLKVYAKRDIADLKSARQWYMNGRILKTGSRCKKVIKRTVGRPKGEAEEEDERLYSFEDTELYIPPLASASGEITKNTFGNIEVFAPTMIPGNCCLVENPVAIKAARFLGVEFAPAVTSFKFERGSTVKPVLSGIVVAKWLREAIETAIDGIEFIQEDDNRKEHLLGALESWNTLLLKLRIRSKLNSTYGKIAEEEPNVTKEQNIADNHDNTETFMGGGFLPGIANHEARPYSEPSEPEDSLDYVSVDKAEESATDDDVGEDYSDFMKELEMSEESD
T1 sequence 2: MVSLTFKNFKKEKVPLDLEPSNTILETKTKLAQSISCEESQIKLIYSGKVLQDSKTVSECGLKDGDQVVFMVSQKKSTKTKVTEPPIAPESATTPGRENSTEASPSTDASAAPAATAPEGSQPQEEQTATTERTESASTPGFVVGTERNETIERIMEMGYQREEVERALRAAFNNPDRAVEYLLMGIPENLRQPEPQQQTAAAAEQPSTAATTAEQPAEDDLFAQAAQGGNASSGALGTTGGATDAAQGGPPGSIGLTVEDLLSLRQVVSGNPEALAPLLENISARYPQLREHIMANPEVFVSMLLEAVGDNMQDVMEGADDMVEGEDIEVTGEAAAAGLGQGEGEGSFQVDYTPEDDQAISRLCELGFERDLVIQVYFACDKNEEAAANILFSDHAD
T1 sequence 3: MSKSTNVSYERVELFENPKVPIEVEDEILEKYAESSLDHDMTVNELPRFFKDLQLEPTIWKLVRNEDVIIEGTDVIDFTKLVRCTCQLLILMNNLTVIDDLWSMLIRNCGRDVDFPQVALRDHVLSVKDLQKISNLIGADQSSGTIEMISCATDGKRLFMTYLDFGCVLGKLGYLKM

T2: Rad3 (yeast, UniProt P06839 1-778)
T2 construct: Rad3 (XPD homologue), subunit of yeast coreTFIIH; Stood in the assays as part of coreTFIIH; also called yeast homologue of XPD; source: purified from yeast as a subunit of coreTFIIH
T2 sequence (looked up): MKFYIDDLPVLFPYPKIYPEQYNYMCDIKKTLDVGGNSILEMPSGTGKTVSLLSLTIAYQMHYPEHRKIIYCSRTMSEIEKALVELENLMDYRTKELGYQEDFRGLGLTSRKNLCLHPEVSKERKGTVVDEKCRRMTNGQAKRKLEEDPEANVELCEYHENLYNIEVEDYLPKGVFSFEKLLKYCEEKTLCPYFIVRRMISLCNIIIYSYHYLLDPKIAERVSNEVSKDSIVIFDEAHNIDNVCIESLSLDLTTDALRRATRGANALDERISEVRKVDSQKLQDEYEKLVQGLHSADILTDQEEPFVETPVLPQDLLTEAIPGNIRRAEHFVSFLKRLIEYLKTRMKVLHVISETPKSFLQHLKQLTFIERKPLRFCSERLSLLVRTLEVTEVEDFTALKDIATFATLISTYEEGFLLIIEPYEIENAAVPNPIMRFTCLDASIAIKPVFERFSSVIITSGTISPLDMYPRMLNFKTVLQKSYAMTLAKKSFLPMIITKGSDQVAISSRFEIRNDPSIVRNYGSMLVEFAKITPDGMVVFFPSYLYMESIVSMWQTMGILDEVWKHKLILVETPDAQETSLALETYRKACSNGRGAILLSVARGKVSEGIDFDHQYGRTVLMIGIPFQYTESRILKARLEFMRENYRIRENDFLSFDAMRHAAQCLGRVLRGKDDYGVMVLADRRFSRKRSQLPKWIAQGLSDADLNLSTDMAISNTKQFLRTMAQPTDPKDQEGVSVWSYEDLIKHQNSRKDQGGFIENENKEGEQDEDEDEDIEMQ

B1: Ssl2 (natural protein, Saccharomyces cerevisiae, UniProt Q00578 1-843, looked up)
chain: MTDVEGYQPKSKGKIFPDMGESFFSSDEDSPATDAEIDENYDDNRETSEGRGERDTGAMVTGLKKPRKKTKSSRHTAADSSMNQMDAKDKALLQDTNSDIPADFVPDSVSGMFRSHDFSYLRLRPDHASRPLWISPSDGRIILESFSPLAEQAQDFLVTIAEPISRPSHIHEYKITAYSLYAAVSVGLETDDIISVLDRLSKVPVAESIINFIKGATISYGKVKLVIKHNRYFVETTQADILQMLLNDSVIGPLRIDSDHQVQPPEDVLQQQLQQTAGKPATNVNPNDVEAVFSAVIGGDNEREEEDDDIDAVHSFEIANESVEVVKKRCQEIDYPVLEEYDFRNDHRNPDLDIDLKPSTQIRPYQEKSLSKMFGNGRARSGIIVLPCGAGKTLVGITAACTIKKSVIVLCTSSVSVMQWRQQFLQWCTLQPENCAVFTSDNKEMFQTESGLVVSTYSMVANTRNRSHDSQKVMDFLTGREWGFIILDEVHVVPAAMFRRVVSTIAAHAKLGLTATLVREDDKIGDLNFLIGPKLYEANWMELSQKGHIANVQCAEVWCPMTAEFYQEYLRETARKRMLLYIMNPTKFQACQFLIQYHERRGDKIIVFSDNVYALQEYALKMGKPFIYGSTPQQERMNILQNFQYNDQINTIFLSKVGDTSIDLPEATCLIQISSHYGSRRQEAQRLGRILRAKRRNDEGFNAFFYSLVSKDTQEMYYSTKRQAFLVDQGYAFKVITHLHGMENIPNLAYASPRERRELLQEVLLKNEEAAGIEVGDDADNSVGRGSNGHKRFKSKAVRGEGSLSGLAGGEDMAYMEYSTNKNKELKEHHPLIRKMYYKNLKK
notes: Ssl2 (XPB homologue), subunit of yeast coreTFIIH; C-Ssl2 549–776, C-terminal region 771–843 as printed; Stood in the assays as part of coreTFIIH; also called yeast homologue of XPB; source: purified from yeast as a subunit of coreTFIIH
B2: Ssl1 (natural protein, yeast, UniProt Q04673 1-461, looked up)
chain: MAPVVISESEEDEDRVAITRRTKRQVHFDGEGDDRVDQQQQQHSSSHRDRDKHVQRKKKKRLSNRNLQGSNGGYAWEDEIKRSWDLVKVDDEGDMASLVASIVEARKKRTAKKNITPYQRGIIRSLILTLDCSEAMLEKDLRPNRHAMIIQYAIDFVHEFFDQNPISQMGIIIMRNGLAQLVSQVSGNPQDHIDALKSIRKQEPKGNPSLQNALEMARGLLLPVPAHCTREVLIVFGSLSTTDPGDIHQTIDSLVSEKIRVKVLGLSAQVAICKELCKATNYGDESFYKILLDETHLKELFNEAVTPLPVNKINKGFTLVKMGFPTRIFEDTPTFCSCHSKLVYGGYFCPNCHSKVCSLPTVCPCCDLMLILSTHLARSYHHLMPLKTFAEVPTTEKFRSEDCFSCQSRFPILKNHKNGKLLTSSRYRCEDCKQEFCVDCDVFIHEILHNCPGCESKPVIT
notes: Ssl1 (p44 homologue), subunit of yeast coreTFIIH; Stood in the assays as part of coreTFIIH; also called yeast homologue of p44; source: purified from yeast as a subunit of coreTFIIH
B3: Tfb2 (natural protein, yeast, UniProt Q02939 1-513, looked up)
chain: MSDYSLKHSVTQYLEEIPQQVQNRLYTSPATCLAIYRILPPLAKFFIMAMVFNENEVPLLDLDKWVNSNGKLQFQNAIKSMKSLHLLIPNKSSGTLMINLNPTFKISLRNALTGGEVQNSFGVVVEENVVSLDLLDEYSANKWETILHFMVGTPLAKIPSEKVLNLLKHSKLMEEVNSTGEFKITNEGFQFLLQEINSQLWTLLLQYLKMIETSKMDLVDVLHFIFMLGALEVGKAYKIDALSETQRIMLQDMRDYGLVFQKHSNDSIFYPTKLALMLTSDTKTIRSASNAMDSVLRQNREEPSVNEDGANGKSTTDITTSDDLNKAGLKNQDIPDGSLIVETNFKIYSYSNSPLQIAVLSLFVHLKARFVNMVLGQITRESIRRALTNGITADQIIAYLETHAHPQMRRLAEEKLEKKLELDPNCKEPLQVLPPTVVDQIRLWQLELDRVITYEGSLYSDFETSQEYNLLSKYAQDIGVLLWKDDKKKKFFISKEGNSQVLDFAKRKLKKKQ
notes: Tfb2 (p52 homologue), subunit of yeast coreTFIIH; Tfb2C 412–513 as printed; Stood in the assays as part of coreTFIIH; also called yeast homologue of p52; source: purified from yeast as a subunit of coreTFIIH

Key:
Settings in all cases: both partners purified
Rad4–Rad23–Rad33 complex = target: T1, Rad4–Rad23–Rad33 complex; assay: cross-linking; XL-MS: TFIIH/Rad4–Rad23–Rad33 assembled on −24/+24 AAF-DNA, 1 mg/mL in 20 mM HEPES pH 7.6, 300 mM potassium acetate, 5% glycerol, 5 mM DTT; 6 mM DSBU on ice 2 h; MeroX, FDR <1%
Rad3 = target: T2, Rad3; assay: cryo-EM structure; coreTFIIH and Rad4–Rad23–Rad33 on −24*/+24 AAF-DNA with ATP, glycerol gradient with glutaraldehyde; Map 1 3.86 Å (TFIIH), Map 2 9.2 Å, Map 3 7.9 Å; Rad4, Rad33 and the Tfb1 PH domain placed by rigid-body docking of known structures or homology models
Ssl2 = target: B1; assay: as above

Binder: B1
binding result (Rad4–Rad23–Rad33 complex): binds

Binder: B2
binding result (Rad3): binds

Binder: B3
binding result (Ssl2): binds
